From the NTF2 design screens of Basanta et al. (2020) come the findings set out here.

The data set is described as follows: protease stability score; higher = more stable; yeast display proteolysis, trypsin and chymotrypsin.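 Note: log10 excess protease needed over predicted unfolded state with 0 meaning unfolded.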
Consider “EERQQELAKTFMEAVQSNDTTQLKRMFDKHAKVTVGDKTVSGREDASKWLSKLHKESRVQLRDVKVEVSGNKIDIKVRFEVQHNGKPREVTREMEMTFHNGKIKDLRATRTE”, for which the protease stability score came to 0.394. Sequence “DEDNLRDAMEVYHQNDPDKAVKMADEDVKVVVGDRKWNGREDFEEAMRTFNQRVDHIEYKSMDVSNGQISIDVVINVDGQNARFILNIEIHNGKIKSLRYQWRNENVRQVLTEIFQ” registered a protease stability score of 0.795.

“DERRLEQQQREYLKVLNTGNPDEMNELFDENASWQVGDKRYTGREEIERKLRELHNRVDQVRLDSYEVEPGRIKIDFQLDVNGVKVRITIILHYHNGRLQEVKMDVTDPEQWKHMQK”: the protease stability score is -0.011. With “DQKVNEFFKHVVKVEENGDTDKYRDNFDKDARAVYGDKRVTGNDELADTMRRTRHDMKYDVRSMDVQVRNGRVTVDVKVDVRVDGKPHSLKETIEMEVDNGKVKEVRVDFDPDQRRKVER”, the protease stability score was -0.188.

“EDRQNQEVNKKAQKGDWQHLRELADKDVTLQVGDKQYHGREKFQELLKKLETSVDRFKVDSITFHNGKVKVRAQAVVNGQKIEFVIIITFHNGRAKSMRIQARDEDLEKELLKMLS” showed a protease stability score of 0.944. Consider “DDQLSDQLDKARKQIEEGNFEQVREYVDPNVSVHVGDKSVHGREKYTHEILRKHQELRYKVEVTRVHVENGRLDVKAQETVNHNGRPESSRYVLDLNMHNGRLKHMTKSSDK”, for which the protease stability score is -0.321. “DEEKEKEAADRASTNDPDEFRKMVDEDARVVVGEKQWHGREKVQKFYEDQKKRIDHLRVEHVDKDGNRVVITQFYQVNGVRVHAIFIITVHNGRLKMRSVQFTDEHAERRMKKAVS” returned a protease stability score of 0.528.

For “DEDKEAEKLVKEMQENQRQGDEEKWANLFDEDAHFRIGDKHLHGRQDLQDNVRKWRHNYDHLSVRMKDLKHDGDKARLHVVITQRHNGKNDSMTVDIVIVKQNGRVRIKNFQAP”, the protease stability score was 0.513.

“DEDQELRSLAEDAVRAMQSNNPDDFVNLFPENARINIGDKNIHGREEIKKHAQEVNTKVDRFSVTIEHIHVHNGKAEFTVDFVMNINGRTERRRASFRIDRIGDKVRIHSADVK” showed a protease stability score of 0.571. Take “DDTAVKIATRFWKAVETNDEQTLRDNLDPNVEVRYGDKTYHGMEDILKRLRHDADNMRHKVEIKDYRTHNGQANIDMVVRQEHNGKPERRRFKLHFRISNGRVRTMKLNDDS”: the protease stability score amounted to 0.733. Regarding “DEEDHKKILQKIADVYQRGNPNQQRDLMDENARVVIGNTKFHGREQAMEAAEERRRQVDRIQLTSIDVHGNKFHIRVTLDINGKTVDIHIDVEVHNGKIKDVQVDPRAEKFFKG”, the protease stability score came out at 0.202. For “DDDAQRRVKTYFNLLLTGNPENLKNQVDEDVRVEIGDKEIRGSDQVAHHARQLHTEMRIHARIDDMKVQGDHIRVEVRLYFERNGQPRTKNLRASVRWHNGKMKEFVVKNDD”, the protease stability score was 0.682. “DDHRAHQMAEFVIDAIRTGDPDKFVNQADENVRVVIGDKQVQGHEEAREALKSLKDQADHVSLTDFRVHGDKVEVVFEARVNGVDLVMKVYARIHNGHLVMMSIDVTDPRKQKKADS” came in with a protease stability score of 1.11. The result for “DHKEARDVAQTMMHLLKHGDFEQIVRNADPNAHFVVGDKEYHGRDNLRKVLKRLHDQVDHISFRTYKVDEDTAKLDATVQINGRNYRMDVLVHFHNGRIKDLNIKVTDEDTQREADK” reads 2.08; that for “DEEAMKVFEEIMRAIEQGDPDRIIENADEDVRFDVGDKRLHGREKAAKDLVDFLHHQRTHIRSYDTSVSGEKLTLDVDMVNQNNGNPNSKRYTVDAHVHNGKLKSVKETDDQ”, -0.27. For the sequence “DEEERSKLAERLVKAVQNNDEDSLLDNIDKNARVVVGEKTYHGRENARHAMQQFDEDVDHLQVRTFEVHGEHIRIQFEVNINGHTHTVVLDAEVKNGKLTDVKFDPDDMRKATS”, the protease stability score stood at 0.14. In turn, “DESARDIASTIVSALHNNNPSQFSENLDKDATLNIGDKRIHGKERAEEHLSNQIKSLRIQFDDYQVRVHNGDVIINLDYKRDHNGEPRRVKQRVTIQIHNGRAQSVVVKETS” returned a protease stability score of 0.365.

Take “DEEEQNKIAETAAKAVASGDEKRLVDLADKHVKVHYGDKDLRGKEAADTLAHDLKRQVDNIKVDTVHAHNGRANADVEVRVNGKKVRYQVQVVVTNGTIDRVQLDPDMVRDHES”: the protease stability score was determined as 0.101. For the sequence “DSKEVRKAEELAKAVRTGDPDTIVKLMDPNARLKVGDREYRGQKDVQKFLKRVLDEIRVKLDVQDIKAHNGKVKVRATVVQRKNGTPHHRTMRMWVQMNNGHVEELSVSNDS”, the protease stability score stood at 0.401. As for “DERKQENVAKRVIRALQTGDSDMMERLVDPNAEVRYGDKRLRGREELREFVTTFKRAVDHLSFDRFEVHNGRAVANAKLNVNGRVMHVRIIVNFHDGRVTHIQIDVTDESQATRARS”, the protease stability score was found to be 0.643. With “DEREARDVQHRINKNDPQSHEDQVDEDVKLQIGDTTWHGREELNDVIRRVRESADHIKYERVEVDGDTVVADVVYTINGKNIKLRLVVHVKNGRIKYMNMTATNPDDLRTLNEIIQ”, the protease stability score was 1.25.

“DEERSAHKFLKDMEKLMRTGDFQEVAKLFDKHAKVEVGDKRVHGREQIIRTNQQWEKRVDSVDLKIQHVSVKGEDVDVHYNMVLRYNGRNDNRVYRFVATVHGDKVRITHMELE” showed a protease stability score of 0.348.

For “DDRTQKRLAEEVVRILNRGDEDQIRKMADKDVKARVGEQSVHGRETALRLLIEFNRRVDHVDIRHVHTEEGRVEVDLVAEVNGRRIRMHIVFILHNGKLHKVEMDPDELRKLEK”, the protease stability score is 0.868. As for “DEERADELVELLTNNNFQSLADNADPNASIEYGDKTIRGRDEANKFLQNIERRADHVEIKSLKTKGNKIDIDLVVHVNGQKLRFKVEIKLRNGKVTHIRIQATSERDQRKFLEVVG”, the figure is 1.06. In turn, “DEDNQREANRAAKTGDFKRMAEKADPNVSVTVGDKEVKGREEVHKFVQRFDDQVDDLDIKSFRVEGDKVHVQATAVFNGKKIEFSFSARIHNGKLTKMTVKVRDPRQQKKLQKQWE” yielded a protease stability score of 0.004. Take “DHTADRIIRNLMDALNQNDEDKAVKLMDENVRFRIGDKEYQGRERWKKLLQDWNKHASIRYTVDSMDRRGEKVHVKFELKVNINGNPVTVRVTVEFEIRNGKIKSAVYEMDPDDAKEVWS”: the protease stability score amounted to 0.925. Regarding “DEDRMRKLLEQFLTALLQGDPEKMMELADEDVRMTYGDKEYHGREQVRDWAKDYRDKVDHASVHSYEVHGDKAQAIVVANVNGRTLSYTVVVRFQDGRAKHIKFESS”, the protease stability score worked out at 2.23.

Consider “DERDEKRLNETAHRLVKTGDPDQWARLADKDVHVRVGDKKWEGREQLRDLLSRIVKNVDTHQVDTVTAKNGRITIRMVLNINGRNLTIWVTMVIHNGKIKEVEVRVRSEKERKKLES”, for which the protease stability score worked out at 0.981. “DEQDQARRIVRHLLSAIRNNDPHRFQNNVDENVTLQYGDKTYNGDEDVHKYIEQFKREQKNARLRLLRLRIDNGRIDVIVRLRADHNGKEIRQIIVFHLVVRNGQARVETAHEG” yielded a protease stability score of 1.17. The result for “DEEDLKHMNENFESGNPDQIVEMFDKDARITVGNKKYRGREDIRKFAEMIRKQVDNRRLKSVEVEGNKFRIQWMFVVNGRRIEAVLHVHAHNGKVKEMSIEVTNPEDQTQYDRDAD” reads 1.66.

“DESAKRKFEEFLEQIRHNNPDELKKMMDKDVRVNIGDKEINGRDQVKNELERFAKEQRFRIQVKHMSVSNGHLHAKVTVESTHNGSPDSDKFQVQANFQGDKFKEMQWDKDS”: the protease stability score is -0.189. “DESLMKVAQEVHDAWNQGDPTKLQENFDKDAEIQVGDKQIHGREDATRELDRKKKQQRFEVQVTSMTAQNGDVKVDARFHFKHNGRPDERRFKLTINAENGRIQEASIDQTK” displayed a protease stability score of -0.151. “DDEIERTMKNLMEAFSEGDPDKFRRNADPNAKMNVGDKSFHGMDDFLHQLKQLNKQARIEIEHITVTAQGDHAEVHAQFVNTENGRPRTKRVVYRAEVRNGQAKSIKLEDTK” returned a protease stability score of 0.176. As for “DEHLNRHLSTVLNILQEGDPKKLLQQFDPNAHFQIGDTHVHGREQMDQQMERERRRARTEVKDYKVDDQGEQLVLHMTFRVDRNGKPKEMQATIKAEVHNGHFKEMKFETDR”, the protease stability score is -0.089.
